Reference: patent US20200148757A1 (KOREA ADVANCED INSTITUTE OF SCIENCE AND TECHNOLOGY, published 2020)
Blank lines part the entries; values can stand above or below the binder they belong to.

What was measured:
Cetuximab-VEGF-Grab [1] = target: T1, Cetuximab-VEGF-Grab; assay: BLI (BLItz), biotinylated P1GF on streptavidin biosensor, 1:1 model
T1 construct: Made in Freestyle293F cells and purified on Protein A; also called Cet-Grab; scFv-Cetuximab-VEGF-Grab
Experimental: (§1) Thereafter, to measure the dissociation rate (koff), each reaction product was allowed to react in a PBS buffer for 2 minutes. The final dissociation constant was calculated as a ratio of koff/kon. Sensorgrams were analyzed with the global fitting function using a 1:1 binding model (grouped by color and Rmax).

Cetuximab-VEGF-Grab [2] = target: T1, Cetuximab-VEGF-Grab; assay: BLI; EGFR ECD pre-bound to Cet-Grab, then P1GF (reverse order); EGFR ECD pre-bound to Cet-Grab
Cetuximab-VEGF-Grab [3] = target: T1, Cetuximab-VEGF-Grab; assay: BLI (BLItz), biotinylated VEGF-A on streptavidin biosensor, 1:1 model
Experimental: as §1

Cetuximab-VEGF-Grab [4] = target: T1, Cetuximab-VEGF-Grab; assay: BLI; EGFR ECD pre-bound to Cet-Grab, then VEGF-A (reverse order); EGFR ECD pre-bound to Cet-Grab

Kd (Cetuximab-VEGF-Grab [1]): 1.59 nM
Kd (Cetuximab-VEGF-Grab [2]): 1.11 nM
B1: human P1GF (ligand)
chain: LPAVPPQQWALSAGNGSSEVEVVPFQEVWGRSYCRALERLVDVVSEYPSEVEHMFSPSCVSLLRCTGCCGDENLHCVPVETANVTMQLLKIRSGDRPSYVELTFSQHVRCECRPLREKMKPERCGDAVPRR
notes: also called PlGF; placental growth factor

Kd (Cetuximab-VEGF-Grab [3]): 1.04 nM
Kd (Cetuximab-VEGF-Grab [4]): 1.17 nM
B2: human VEGF-A (ligand)
chain: APMAEGGGQNHHEVVKFMDVYQRSYCHPIETLVDIFQEYPDEIEYIFKPSCVPLMRCGGCCNDEGLECVPTEESNITMQIMRIKPHQGQHIGEMSFLQHNKCECRPKKDRARQENPCGPCSERRKHLFVQDPQTCKCSCKNTDSRCKARQLELNERTCRCDKPRR
notes: also called hVEGF-A
